Where two headings read alike, the source gives them in different places. Where no end group is shown, it is not given here. [ ]: non-standard residue; d: D form. Aib = CC(C)(N)C(=O)O
What was measured:
[1] = target: T1, human GIPR expressed in HEK293 cells (human, UniProt P48546 22-466); assay: [125I]GIP competition, cell membranes
T1 chain: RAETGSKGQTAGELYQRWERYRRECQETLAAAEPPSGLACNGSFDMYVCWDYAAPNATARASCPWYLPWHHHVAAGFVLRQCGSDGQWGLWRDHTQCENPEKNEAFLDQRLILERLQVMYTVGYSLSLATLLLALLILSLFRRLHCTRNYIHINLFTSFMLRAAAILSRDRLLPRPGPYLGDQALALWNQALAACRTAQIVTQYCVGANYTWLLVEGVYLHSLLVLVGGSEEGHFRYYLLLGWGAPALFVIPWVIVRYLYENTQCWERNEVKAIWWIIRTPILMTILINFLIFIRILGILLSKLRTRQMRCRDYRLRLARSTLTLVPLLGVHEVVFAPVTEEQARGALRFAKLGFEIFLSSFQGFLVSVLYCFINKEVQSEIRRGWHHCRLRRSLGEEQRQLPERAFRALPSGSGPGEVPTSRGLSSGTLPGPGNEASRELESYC

[2] = target: T2, human GLP-1R expressed in HEK293 cells (human, UniProt P43220 24-463); assay: [125I]GLP-1 competition, cell membranes
T2 chain: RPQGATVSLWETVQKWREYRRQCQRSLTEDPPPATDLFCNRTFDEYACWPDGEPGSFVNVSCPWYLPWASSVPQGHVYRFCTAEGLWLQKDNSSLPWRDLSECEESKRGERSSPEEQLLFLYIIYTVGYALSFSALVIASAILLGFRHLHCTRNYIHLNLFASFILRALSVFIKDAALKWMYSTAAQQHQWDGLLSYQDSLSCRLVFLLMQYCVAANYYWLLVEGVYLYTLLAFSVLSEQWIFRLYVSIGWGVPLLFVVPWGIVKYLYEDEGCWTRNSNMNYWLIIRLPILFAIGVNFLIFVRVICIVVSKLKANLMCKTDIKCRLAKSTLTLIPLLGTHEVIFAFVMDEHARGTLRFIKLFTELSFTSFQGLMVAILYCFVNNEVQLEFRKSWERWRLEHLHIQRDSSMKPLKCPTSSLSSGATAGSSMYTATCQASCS

[3] = target: T1, human GIPR expressed in HEK293 cells; assay: [125I]GIP competition, cell membranes
[4] = target: T2, human GLP-1R expressed in HEK293 cells; assay: [125I]GLP-1 competition, cell membranes
[5] = target: T3, isolated extracellular domain (ECD) of human GLP-1R, amino acids 24 to 145 (human, UniProt P43220 24-145); assay: SPR; kinetic fit
T3 chain: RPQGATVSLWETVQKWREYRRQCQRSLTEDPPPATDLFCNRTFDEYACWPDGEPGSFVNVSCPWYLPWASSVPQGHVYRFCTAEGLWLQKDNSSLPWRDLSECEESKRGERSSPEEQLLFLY

## HAEGTFTSDYSI[Aib]LDKIAQKAFVQWLIAGGPSSGAPPPS (not fully specified (residue 2, C-terminus); ends and bridges not checked)
[1]
  Ki: 0.416 nM
[2]
  Ki: 0.599 nM

## YAEGTFTSDVSSYLEGQAAKEFIAWLVKGR (not fully specified (C-terminus)) [GLP-1H7Y]
[1]
  Ki: > 128 nM

## YAEGTFTSDYSI[Aib]LDKIAQKAFVQWLIAGGPSSGAPPPS [tirzepatide analog lacking the lipid moiety (TZP^ΔC20)]
[3]
  Ki: 0.0235 nM
[4]
  Ki: 2.67 nM
[5]
  Kd: 70.6 nM

## YAEGTFTSDYSIALDKIAQKAFVQWLIAGGPSSGAPPPS (not fully specified) [tirzepatide (LY3298176)]
[3]
  Ki: 0.087 nM

Reference: paper PMC9060465 (2022)
